In article PMC12888920, “MMP-9 regulates disulphide isomerase activity of TGM2 to enhance fusion glycoprotein-mediated syncytium formation of respiratory syncytial virus” (Protein & Cell, 2025):

Key:
[1] = biological target: RSV F protein (DS-Cav1); assay: Biolayer interferometry, MMP-9 binding to RSV F protein (DS-Cav1); set-up: species or system Respiratory syncytial virus; conditions: BLI, DS-Cav1 immobilized; read-out: dissociation constant (KD), MMP-9 to RSV F
Protocol: Figure 4. MMP-9 interacts with RSV F protein. (A) MMP-9–F protein interaction analysis. HEK293T cells co-transfected with MMP-9 and RSV F plasmids (48 h) were subjected to co-immunoprecipitation (Co-IP) using anti-F, anti-MMP-9, or IgG control antibodies, followed by immunoblotting with indicated probes. Blots represent three independent experiments. (B) Binding affinity quantification. Biolayer interferometry (BLI) assays using ForteBio Octet measured DS-Cav1 (RSV F prefusion conformation) and MMP-9 interactions. The results represent three biological replicates. (C) Subcellular co-localization. Confocal microscopy of HEp-2 cells transfected with MMP-9 (24 h) ± RSV A2 infection (MOI = 1, 72 hpi). Nuclei (DAPI), MMP-9, and RSV F signals are shown. Scale bar: 20 µm. Images represent three biological replicates. (D) No effect on F protein proteolytic processing. Western blot of RSV F cleavage status in HEK293T cells co-expressing MMP-9 (100–500 ng) and RSV F (500 ng) for 48 h. β-Actin served as loading control. Blots represent three independent experiments. […] They were left out and are not reliably readable. […]
(§1) 271 TGM2) were quantified using a Sartorius Octet R4 system. […]
(§2) 275 equilibration. MMP-9 (MCE) binding was assessed across two concentration ranges: […]
(§3) 281 (Sartorius) at 20 µg/mL. TGM2 binding was evaluated across 0 –100 µM (7 […]

[2] = biological target: T1, TGM2 (Homo sapiens, UniProt P21980); assay: Biolayer interferometry, MMP-9 binding to TGM2; conditions: BLI, purified human proteins, TGM2 immobilized; read-out: dissociation constant (KD), MMP-9 to TGM2
T1 construct: His tag (inferred from capture on anti-penta-HIS biosensors); purchased MCE (MedChemExpress)
T1 sequence (P21980 1-687): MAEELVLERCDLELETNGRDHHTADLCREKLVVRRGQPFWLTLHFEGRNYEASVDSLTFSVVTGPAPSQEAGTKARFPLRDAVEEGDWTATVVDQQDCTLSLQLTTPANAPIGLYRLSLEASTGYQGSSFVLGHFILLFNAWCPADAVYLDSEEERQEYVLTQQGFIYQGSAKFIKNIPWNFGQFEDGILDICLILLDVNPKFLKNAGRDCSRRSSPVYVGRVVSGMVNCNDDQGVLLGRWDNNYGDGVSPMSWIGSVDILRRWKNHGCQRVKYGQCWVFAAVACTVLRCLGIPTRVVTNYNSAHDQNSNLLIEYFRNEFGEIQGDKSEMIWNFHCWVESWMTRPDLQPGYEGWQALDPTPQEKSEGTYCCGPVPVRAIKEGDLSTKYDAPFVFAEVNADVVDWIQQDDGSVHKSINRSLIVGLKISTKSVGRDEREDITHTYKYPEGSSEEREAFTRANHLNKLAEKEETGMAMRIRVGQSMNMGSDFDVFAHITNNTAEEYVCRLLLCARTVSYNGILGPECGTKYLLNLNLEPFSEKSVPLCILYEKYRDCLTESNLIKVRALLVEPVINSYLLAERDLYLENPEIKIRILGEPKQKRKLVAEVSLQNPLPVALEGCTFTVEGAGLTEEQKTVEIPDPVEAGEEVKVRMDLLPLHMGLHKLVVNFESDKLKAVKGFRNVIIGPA
Protocol: Figure 6. MMP-9 cleaves TGM2 to potentiate RSV infection. (A) MMP-9–TGM2 interaction. […] Blots represent three independent experiments. (D) Infection-enhanced cleavage. MMP-9-dependent TGM2 proteolysis in HEp-2 cells transfected with HA-TGM2 and siMMP-9, followed by RSV A2 infection (MOI = 1, 72 hpi). TGM2 fragment band intensity was quantified by ImageJ software (gray values). Blots represent three independent experiments. (E) Enzymatic validation. MMP-9 proteolytic activity was measured using fluorogenic substrate Mca-PLGL-Dpa-AR-NH2. The results represent three biological replicates. (F) In vitro cleavage assay. Recombinant TGM2 (2 µg) was incubated with APMA-activated MMP-9 (0.2 µg) for 18 h (37°C, pH 7.5). Cleavage products resolved by SDS-PAGE (10%). Arrows indicate proteolytic fragments. The results represent three biological replicates. (G) Functional rescue. Viral titers (FFA) in HEp-2 cells overexpressing MMP-9, TGM2, or cleavage-resistant mutant (TGM2-P375A) post RSV infection (MOI = 1, 72 hpi). mean ± SD, n = 3. (H) Syncytium rescue. Syncytia area quantification in MMP-9/TGM2-modulated cells (ImageJ software). mean ± SD, n = 3. […]
as §1, §2, §3

B1: MMP-9: recombinant matrix metalloproteinase 9 protein used as analyte in BLI (protein)
chain: APRQRQSTLVLFPGDLRTNLTDRQLAEEYLYRYGYTRVAEMRGESKSLGPALLLLQKQLSLPETGELDSATLKAMRTPRCGVPDLGRFQTFEGDLKWHHHNITYWIQNYSEDLPRAVIDDAFARAFALWSAVTPLTFTRVYSRDADIVIQFGVAEHGDGYPFDGKDGLLAHAFPPGPGIQGDAHFDDDELWSLGKGVVVPTRFGNADGAACHFPFIFEGRSYSACTTDGRSDGLPWCSTTANYDTDDRFGFCPSERLYTQDGNADGKPCQFPFIFQGQSYSACTTDGRSDGYRWCATTANYDRDKLFGFCPTRADSTVMGGNSAGELCVFPFTFLGKEYSTCTSEGRGDGRLWCATTSNFDSDKKWGFCPDQGYSLFLVAAHEFGHALGLDHSSVPEALMYPMYRFTEGPPLHKDDVNGIRHLYGPRPEPEPRPPTTTTPQPTAPPTVCPTGPPTVHPSERPTAGPTGPPSAGPTGPPTAGPSTATTVPLSPVDDACNVNIFDAIAEIGNQLYLFKDGKYWRFSEGRGSRPQGPFLIADKWPALPRKLDSVFEERLSKKLFFFSGRQVWVYTGASVLGPRRLDKLGLGADVAQVTGALRSGRGKMLLFSGRRLWRFDVKAQMVDPRSASEVDRMFPGVPLDTHDVFQYREKAYFCQDRFYWRVSSRSELNQVDQVGYVTYDILQCPED
B1 was tested, and the Kd [1] was 0.146 µM and the Kd [2] was 1.98 µM.
